According to paper PMC11949052:

B1: C1-esterase inhibitor (C1-INH): N253A (protein)
parent chain: MASRLTLLTLLLLLLAGDRASSNPNATSSSSQDPESLQDRGEGKVATTVISKMLFVEPILEVSSLPTTNSTTNSATKITANTTDEPTTQPTTEPTTQPTIQPTQPTTQLPTDSPTQPTTGSFCPGPVTLCSDLESHSTEAVLGDALVDFSLKLYHAFSAMKKVETNMAFSPFSIASLLTQVLLGAGENTKTNLESILSYPKDFTCVHQALKGFTTKGVTSVSQIFHSPDLAIRDTFVNASRTLYSSSPRVLSNNSDANLELINTWVAKNTNNKISRLLDSLPSDTRLVLLNAIYLSAKWKTTFDPKKTRMEPFHFKNSVIKVPMMNSKKYPVAHFIDQTLKAKVGQLQLSHNLSLVILVPQNLKHRLEDMEQALSPSVFKAIMEKLEMSKFQPTLLTLPRIKVTTSQDMLSIMEKLEFFDFSYDLNLCGLTEDPDLQVSAMQHQTVLELTETGVEAAAASAISVARTLLVFEVQQPFLFVLWDQQHKFPVFMGRVYDPRA
B2: C1-esterase inhibitor (C1-INH): N238A (protein)
parent chain: MASRLTLLTLLLLLLAGDRASSNPNATSSSSQDPESLQDRGEGKVATTVISKMLFVEPILEVSSLPTTNSTTNSATKITANTTDEPTTQPTTEPTTQPTIQPTQPTTQLPTDSPTQPTTGSFCPGPVTLCSDLESHSTEAVLGDALVDFSLKLYHAFSAMKKVETNMAFSPFSIASLLTQVLLGAGENTKTNLESILSYPKDFTCVHQALKGFTTKGVTSVSQIFHSPDLAIRDTFVNASRTLYSSSPRVLSNNSDANLELINTWVAKNTNNKISRLLDSLPSDTRLVLLNAIYLSAKWKTTFDPKKTRMEPFHFKNSVIKVPMMNSKKYPVAHFIDQTLKAKVGQLQLSHNLSLVILVPQNLKHRLEDMEQALSPSVFKAIMEKLEMSKFQPTLLTLPRIKVTTSQDMLSIMEKLEFFDFSYDLNLCGLTEDPDLQVSAMQHQTVLELTETGVEAAAASAISVARTLLVFEVQQPFLFVLWDQQHKFPVFMGRVYDPRA
B3: C1-esterase inhibitor (C1-INH): N352A (protein)
parent chain: MASRLTLLTLLLLLLAGDRASSNPNATSSSSQDPESLQDRGEGKVATTVISKMLFVEPILEVSSLPTTNSTTNSATKITANTTDEPTTQPTTEPTTQPTIQPTQPTTQLPTDSPTQPTTGSFCPGPVTLCSDLESHSTEAVLGDALVDFSLKLYHAFSAMKKVETNMAFSPFSIASLLTQVLLGAGENTKTNLESILSYPKDFTCVHQALKGFTTKGVTSVSQIFHSPDLAIRDTFVNASRTLYSSSPRVLSNNSDANLELINTWVAKNTNNKISRLLDSLPSDTRLVLLNAIYLSAKWKTTFDPKKTRMEPFHFKNSVIKVPMMNSKKYPVAHFIDQTLKAKVGQLQLSHNLSLVILVPQNLKHRLEDMEQALSPSVFKAIMEKLEMSKFQPTLLTLPRIKVTTSQDMLSIMEKLEFFDFSYDLNLCGLTEDPDLQVSAMQHQTVLELTETGVEAAAASAISVARTLLVFEVQQPFLFVLWDQQHKFPVFMGRVYDPRA
B4: C1-esterase inhibitor (C1-INH): S255G (protein)
parent chain: MASRLTLLTLLLLLLAGDRASSNPNATSSSSQDPESLQDRGEGKVATTVISKMLFVEPILEVSSLPTTNSTTNSATKITANTTDEPTTQPTTEPTTQPTIQPTQPTTQLPTDSPTQPTTGSFCPGPVTLCSDLESHSTEAVLGDALVDFSLKLYHAFSAMKKVETNMAFSPFSIASLLTQVLLGAGENTKTNLESILSYPKDFTCVHQALKGFTTKGVTSVSQIFHSPDLAIRDTFVNASRTLYSSSPRVLSNNSDANLELINTWVAKNTNNKISRLLDSLPSDTRLVLLNAIYLSAKWKTTFDPKKTRMEPFHFKNSVIKVPMMNSKKYPVAHFIDQTLKAKVGQLQLSHNLSLVILVPQNLKHRLEDMEQALSPSVFKAIMEKLEMSKFQPTLLTLPRIKVTTSQDMLSIMEKLEFFDFSYDLNLCGLTEDPDLQVSAMQHQTVLELTETGVEAAAASAISVARTLLVFEVQQPFLFVLWDQQHKFPVFMGRVYDPRA
B5: C1-esterase inhibitor (C1-INH): S354G (protein)
parent chain: MASRLTLLTLLLLLLAGDRASSNPNATSSSSQDPESLQDRGEGKVATTVISKMLFVEPILEVSSLPTTNSTTNSATKITANTTDEPTTQPTTEPTTQPTIQPTQPTTQLPTDSPTQPTTGSFCPGPVTLCSDLESHSTEAVLGDALVDFSLKLYHAFSAMKKVETNMAFSPFSIASLLTQVLLGAGENTKTNLESILSYPKDFTCVHQALKGFTTKGVTSVSQIFHSPDLAIRDTFVNASRTLYSSSPRVLSNNSDANLELINTWVAKNTNNKISRLLDSLPSDTRLVLLNAIYLSAKWKTTFDPKKTRMEPFHFKNSVIKVPMMNSKKYPVAHFIDQTLKAKVGQLQLSHNLSLVILVPQNLKHRLEDMEQALSPSVFKAIMEKLEMSKFQPTLLTLPRIKVTTSQDMLSIMEKLEFFDFSYDLNLCGLTEDPDLQVSAMQHQTVLELTETGVEAAAASAISVARTLLVFEVQQPFLFVLWDQQHKFPVFMGRVYDPRA
B6: C1-esterase inhibitor (C1-INH): N352S (protein)
parent chain: MASRLTLLTLLLLLLAGDRASSNPNATSSSSQDPESLQDRGEGKVATTVISKMLFVEPILEVSSLPTTNSTTNSATKITANTTDEPTTQPTTEPTTQPTIQPTQPTTQLPTDSPTQPTTGSFCPGPVTLCSDLESHSTEAVLGDALVDFSLKLYHAFSAMKKVETNMAFSPFSIASLLTQVLLGAGENTKTNLESILSYPKDFTCVHQALKGFTTKGVTSVSQIFHSPDLAIRDTFVNASRTLYSSSPRVLSNNSDANLELINTWVAKNTNNKISRLLDSLPSDTRLVLLNAIYLSAKWKTTFDPKKTRMEPFHFKNSVIKVPMMNSKKYPVAHFIDQTLKAKVGQLQLSHNLSLVILVPQNLKHRLEDMEQALSPSVFKAIMEKLEMSKFQPTLLTLPRIKVTTSQDMLSIMEKLEFFDFSYDLNLCGLTEDPDLQVSAMQHQTVLELTETGVEAAAASAISVARTLLVFEVQQPFLFVLWDQQHKFPVFMGRVYDPRA

Assay: ELISA and Western blot of HEK293T supernatants
Conditions: glycan lost; control: wild type

expression_or_secretion, percent_of_wt, no change:
B1
B2
B3
B4
B5
B6
